Assay results reported in US20130184223A1, “METHODS AND COMPOSITIONS RELATED TO MODULATING AUTOPHAGY” (UNIVERSITY OF ROCHESTER, priority 2010, published 2013).
Entries after “also recorded” stand apart in the source; their conditions may differ.

B1: Rab5a DN: 3× Flag-tagged Rab5a S34N dominant negative mutant, inhibitor of endocytosis (protein, UniProt P20339 1-215, looked up, variant S34N)
Ras-related protein Rab-5A: MASRGATRPNGPNTGNKICQFKLVLLGESAVGKNSLVLRFVKGQFHEFQESTIGAAFLTQTVCLDDTTVKFEIWDTAGQERYHSLAPMYYRGAQAAIVVYDITNEESFARAKNWVKELQRQASPNIVIALSGNKADLANKRAVDFQEAQSYADDNSLLFMETSAKTSMNVNEIFMAIAKKLPKNEPQNPGANSARGRGVDLTEPTQPTRNQCCSN
modifications: 3x Flag tag
B2: Atg12: over-expressed 3× Flag-tagged Atg12, a gene required for autophagosomal formation (protein, UniProt O94817 1-140, looked up)
Ubiquitin-like protein ATG12: MAEEPQSVLQLPTSIAAGGEGLTDVSPETTTPEPPSSAAVSPGTEEPAGDTKKKIDILLKAVGDTPIMKTKKWAVERTRTIQGLIDFIKKFLKLVASEQLFIYVNQSFAPSPDQEVGTLYECFGSDGKLVLHYCKSQAWG
modifications: 3x Flag tag
notes: over-expressed 3× Flag-tagged Atg12, a gene required for autophagosomal formation

How the values were obtained:
[1] = system: mp53/Ras transformed cells and CAPAN-2 cells; test: Immunocompromised mouse tumorigenicity assay, cells expressing autophagy modulators; format: in vivo; conditions: cells expressing the protein or shRNA vs vector control, 5×10^5 cells per injection, 4 weeks mp53/Ras, 5 weeks CAPAN-2
Experimental: To determine whether cooperative up-regulation of autophagy is required for tumorigenesis Atg12, a gene involved in autophagosome formation, was knocked-down using two independent constructs in mp53/RasV12 and Capan-2 cells. In addition, a genetic rescue experiment was performed by introducing a shRNA resistant form of ATG12 into these cell backgrounds to test for ATG12 specificity of the observed effects. Tumor formation was inhibited by Atg12 KD in both mp53/Ras and CAPAN-2 cell lines and was rescued by expression of the exogenous shRNA resistant Atg12 (FIG. 4.5a, 4.5c).
Cells were cultured on 15 cm dishes for two days without selective antibiotics at 39 C for mp53/Ras cells and at 37 C for HT-29, CAPAN-2, PANC-1, and 5 Panc10.05. Cells were plated at the following densities: mp53/Ras—7.5×10^5, HT-29 —1.5×10^6, CAPAN-2 —4×10^6, PANC—4×10^6, and PANC 10.05—2×10^6. Cells were trypsinized, counted and re-suspended in RPMI medium lacking supplements for mp53/Ras, CAPAN-2, and Panc10.05, and DMEM lacking supplements for HT-29 and PANC-1 at a density of 5×10^5/100 ul for mp53/Ras and CAPAN-2 cells, 1.25×10^5/100 ul for HT-29 cells, 5×10^6/100 ul for PANC-1, 2×10^6/100 ul for Panc10.05. Matrigel (BD biosciences) was mixed with PANC-1 and Panc10.05 cell/medium mixture at a 1:1 ratio. Cell mixtures were then injected intra-dermally, bilaterally into the flanks of CD1-Foxn1 nude mice (Uracell) […]) in the following numbers: mp53/Ras cells, HT29 1.25×10^5 cells, 5×10^5 CAPAN-2-cells. Cell mixtures were injected intradermally, bilaterally into the flanks of NOD/SCID (UCAR-20060-166 (1)) mice in the following cell numbers per injection: PANC-1 —2.5×10^6 cells and Panc10.05 —1×10^6 cells. Tumor volume was measured every week for 4 weeks for mp53/Ras and HT-29 cells, 5 weeks for CAPAN-2 cells, and 6 weeks for PANC-1.

[2] = system: mp53/Ras transformed cells and CAPAN-2 cells; test: Immunoblot of p62 and LC3 in cells expressing autophagy modulators; format: cell-based; conditions: cells expressing the protein vs vector control
From the text: Thus, the effects of Plac8 KD on both tumor formation and autophagy can be suppressed by constitutive activation of Rab7.
(§1) Moreover, the molecular machinery employed in autophagosomal/lysosomal fusion, such as Rab7, is required for endosomal/lysosomal fusion, which is also required for tumor formation in some cancers.
To determine if the Plac8 KD-induced loss of tumor formation is specifically due to a loss of autophagy completion, Atg12, a gene required for autophagosomal formation, was overexpressed in Plac8 KD cells.
YAMC, vector, mp53, Ras, and mp53/Ras cells were cultured for two days at 39 C in RPMI with 10% FBS medium and gentamicin in collagen-I coated 15 cm dishes. HT-29, CAPAN-2, PANC-1 and Panc 10.05 cells were cultured for two days at 37 C in maintenance media without selective antibiotics on 15 cm dishes. […] Protein concentration was quantified using Bradford reagent (BioRad) and a Genesys 1 0UV spectrophotometer (Spectronic Unicam). […]

[3] = system: mp53/Ras transformed and CAPAN-2 cells; test: Endocytosis of fluorescently labeled dextran; format: cell-based; conditions: 50 uM Alexa-488 dextran for 1 hr; confocal microscopy and FACS
Experimental: as §1
Cells were plated at 2.5×10^5 cells for vector and Rab5a DN mp53/Ras cells on collagen-I coated 10 cm dishes, and 7.5×10^5 cells for vector and Rab5a DN CAPAN-2 cells on 10 cm dishes and allowed to proliferate for two days in maintenance media. Cells were then treated with 50 uM of Alexa-488 labeled 10,000 MW dextran (Invitrogen) for 1 hr in maintenance medium. The cells were then washed 3× with PBS and trypsinized. Cells were pelleted, resuspended in PBS with 1% BSA, transferred to FACS tubes (Falcon), and placed on ice. DAPI was added to a final concentration of […] and cells were FACS analyzed for Alexa-488 signal, with DAPI exclusion of dead cells. To image cells mp53/Ras and CAPAN-2 cells infected with vector control virus or stabily expressing Rab5a DN were plated onto glass coverslips as described in the immunofluorescent staining of cells section. Cells were then treated with 50 uM of Alexa-488 labeled 10,000 MW dextran for 1 hr in maintenance medium. The media containing dextran was removed and the cells were washed 3 times with PBS. […]

| Molecule | tumor formation in nude mice [1] | tumor formation in nude mice ([1]; listed as DN Rab5a) | p62 and LC3 protein levels [2] | endocytosis of Alexa488 labeled dextran [3] |
| --- | --- | --- | --- | --- |
| B1 | increased tumor size over vector control | slightly enhanced tumor formation in transformed YAMC cells and no effect on Capan-2 cells | no effect on p62 or LC3 levels | inhibits endocytosis of Alexa488 labeled dextran |
| B2 | tumor inhibitory; also recorded: inhibits tumor formation |  | p62 and LC3 protein levels were suppressed |  |
